Patent publication US20230257476A1 (ELANCO US, published 2023)

Target: T1, canine CD20 (canine, UniProt Q3C2E2 1-297)
T1 construct: whole, on cells; Endogenous antigen in acetone-fixed tissue cryosections (IHC); also called CD20 protein in dogs
T1 sequence (looked up): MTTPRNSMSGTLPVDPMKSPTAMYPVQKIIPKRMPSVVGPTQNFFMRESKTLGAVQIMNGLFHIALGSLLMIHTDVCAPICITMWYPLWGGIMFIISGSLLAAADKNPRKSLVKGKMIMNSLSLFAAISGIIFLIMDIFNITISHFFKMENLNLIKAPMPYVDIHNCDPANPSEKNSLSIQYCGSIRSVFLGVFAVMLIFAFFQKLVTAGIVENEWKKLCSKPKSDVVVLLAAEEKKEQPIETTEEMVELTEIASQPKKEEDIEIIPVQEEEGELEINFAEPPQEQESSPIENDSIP
Experiment: IHC, precomplexed with biotinylated rabbit anti-dog IgG, cryosections of canine spleen, 10 ug/mL
Protocol: The detection reagent or negative control antibody (at a concentration of 10 […]) was mixed with biotinylated rabbit anti-dog IgG, Fc fragment-specific antibody (RbaDglgG) at a concentration of 15 ug/mL to achieve a primary : secondary antibody ratio of 1:1.5 on the day prior to staining.
Precomplexed antibodies were incubated overnight on a rocker mechanism in a refrigerator set to maintain 4° C., Prior to use of the antibody on the subsequent day, dog gamma globulins were added to each vial to achieve a final concentration of 3 mg/mL, and then incubated for at least 2 hours on the rocker mechanism in a refrigerator set to maintain 4° C. Slides were fixed in acetone for 10 minutes at room temperature at the time of sectioning. On the day of staining, the slides were rinsed twice with Tris-buffered saline, 0.15M NaCl, pH 7.6 TBS. Endogenous peroxidase was then quenched by incubation of the slides with an appropriate reagent such as Biocare PeroxAbolish reagent for 5 minutes at room temperature. Next, the slides were rinsed twice with TBS, incubated with the avidin solution for 15 minutes, rinsed once with TBS, incubated with the biotin solution for 15 minutes, and rinsed once with TBS, The slides were then treated with a protein block designed to reduce nonspecific binding for 20 minutes.

B1: K9LO-133 (antibody, V domains shown)
VH: EVQLVQSGAEVKKPGESLKISCKGSGRTFTSYNMHWVRQMPGKGLEWMGAIYPLTGDTSYNQKSKLQVTISADKSISTAYLQWSSLKASDTAMYYCARSTYVGGDWQFDVWGKGTTVTVSS
VL: EIVLTQSPGTLSLSPGERATLSCRASRSVPYIHWYQQKPGQAPRLLIYATSALASGIPDRFSGSGSGTDFTLTISRLEPEDFAVYYCQQWLSNPPTFGQGTKLEIKR
notes: In the IHC it was precomplexed with biotinylated rabbit anti-dog IgG Fc antibody; also called chimeric canine isotype C monoclonal antibody directed against canine CD20
- binding result: binds
